These results are taken from IntAct's records for PubMed 31911079.

The chains are these.
B1: Lysyl oxidase homolog 2 (Homo sapiens), Q9Y4K0 (parent)
chain: MERPLCSHLCSCLAMLALLSPLSLAQYDSWPHYPEYFQQPAPEYHQPQAPANVAKIQLRLAGQKRKHSEGRVEVYYDGQWGTVCDDDFSIHAAHVVCRELGYVEAKSWTASSSYGKGEGPIWLDNLHCTGNEATLAACTSNGWGVTDCKHTEDVGVVCSDKRIPGFKFDNSLINQIENLNIQVEDIRIRAILSTYRKRTPVMEGYVEVKEGKTWKQICDKHWTAKNSRVVCGMFGFPGERTYNTKVYKMFASRRKQRYWPFSMDCTGTEAHISSCKLGPQVSLDPMKNVTCENGLPAVVSCVPGQVFSPDGPSRFRKAYKPEQPLVRLRGGAYIGEGRVEVLKNGEWGTVCDDKWDLVSASVVCRELGFGSAKEAVTGSRLGQGIGPIHLNEIQCTGNEKSIIDCKFNAESQGCNHEEDAGVRCNTPAMGLQKKLRLNGGRNPYEGRVEVLVERNGSLVWGMVCGQNWGIVEAMVVCRQLGLGFASNAFQETWYWHGDVNSNKVVMSGVKCSGTELSLAHCRHDGEDVACPQGGVQYGAGVACSETAPDLVLNAEMVQQTTYLEDRPMFMLQCAMEENCLSASAAQTDPTTGYRRLLRFSSQIHNNGQSDFRPKNGRHAWIWHDCHRHYHSMEVFTHYDLLNLNGTKVAEGHKASFCLEDTECEGDIQKNYECANFGDQGITMGCWDMYRHDIDCQWVDITDVPPGDYLFQVVINPNFEVAESDYSNNIMKCRSRYDGHRIWMYNCHIGGSFSEETEKKFEHFSGLLNNQLSPQ

Variants of B1 are the subject of the first assay. As to conditions: with vime_human VIM.
Regarding H626Q;H628Q;Y689F, the “effect of a mutation on the interaction” value is reported as “with no effect”.

The variants in a further assay derive from B1. The following applies: with can2_human CAPN2, P17655.
can2_human CAPN2, P17655, sequence (P17655 whole entry): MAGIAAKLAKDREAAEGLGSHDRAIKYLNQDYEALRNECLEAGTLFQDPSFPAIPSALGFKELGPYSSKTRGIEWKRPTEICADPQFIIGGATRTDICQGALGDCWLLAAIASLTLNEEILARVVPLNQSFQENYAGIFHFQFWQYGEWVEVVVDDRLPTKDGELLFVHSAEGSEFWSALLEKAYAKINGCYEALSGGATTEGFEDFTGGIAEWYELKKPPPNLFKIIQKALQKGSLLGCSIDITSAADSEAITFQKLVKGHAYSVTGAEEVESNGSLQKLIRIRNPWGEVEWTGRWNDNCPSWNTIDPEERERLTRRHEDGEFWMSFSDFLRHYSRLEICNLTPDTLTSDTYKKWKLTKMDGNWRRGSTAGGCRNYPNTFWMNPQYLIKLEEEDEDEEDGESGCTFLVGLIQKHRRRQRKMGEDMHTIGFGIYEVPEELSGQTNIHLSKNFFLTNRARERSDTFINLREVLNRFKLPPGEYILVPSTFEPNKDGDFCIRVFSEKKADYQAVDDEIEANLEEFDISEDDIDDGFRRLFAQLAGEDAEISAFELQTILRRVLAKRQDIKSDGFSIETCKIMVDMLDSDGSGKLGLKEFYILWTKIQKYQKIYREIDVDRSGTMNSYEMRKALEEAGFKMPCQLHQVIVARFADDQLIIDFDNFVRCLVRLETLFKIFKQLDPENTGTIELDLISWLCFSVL
In the case of H626Q;H628Q;Y689F, the “effect of a mutation on the interaction” value is “with no effect”.

As for N288Q;N455Q;N644Q, the “effect of a mutation on the interaction” value is “with no effect”.
